From publication PMC5477490

biological target: 3E1 Fab, P01857;P01834; conditions: parent: est. 100; read off a plot

| Substance | percent of parent |
| --- | --- |
| full-length, wild-type HA from A/Washington/05/2011 (H1N1) HA1:H38S | 97% |
| full-length, wild-type HA from A/Washington/05/2011 (H1N1) HA2:D19A | 100% |
| full-length, wild-type HA from A/Washington/05/2011 (H1N1) HA2:Y34M | 100% |
| full-length, wild-type HA from A/Washington/05/2011 (H1N1) HA1:H18L | 100% |
